{"source": "patent US11110182B2", "about": "“Multifunctional RNA nanoparticles and methods for treating cancer and therapeutic resistant cancer” (University of Cincinnati, priority 2016, dated 2021)", "molecules": {"B1": {"name": "pRNA-HER2apt-siMED1: 3-WJ pRNA nanoparticle bearing a HER2-targeting RNA aptamer and two different MED1 siRNAs; strands p1 SEQ ID NO: 3, p2 SEQ ID NO: 4 (nucleic acid)", "chain 1": "GGACAGUGAAAGUGAGUCAAAGGAUCAAUCAUGGCCAAAGAUGUUACUUUGAGAGCCUU", "chain 2": "GGCUCUCAAAGUAACAUCUAAGGCCAUGUGUAUGUGGGGGGAGGACGAUGCGGUCUGCUGUGCUUGAUAUGCCCCAGACGACUCGCCCCCCACAUACUUUGUUGAUCCAAUGACUCACUUUCACUGUCCUU", "modifications": "2'-F modification; third strand may lack entry; pRNA-HER2apt-siMED1, p1; pRNA-HER2apt-siMED1, p2"}}, "type_in_all_cases": "cell-based, human", "key": {"MDA-MB-231 cells": {"system": "MDA-MB-231 cells", "test": "pRNA nanoparticle cellular uptake assay (confocal, flow cytometry), MDA-MB-231", "settings": "MDA-MB-231 (HER2-negative), AF647-conjugated, 10 μg/mL, confocal microscopy", "source_text": "FIG. 8A) HER2 expression in BT474 and MDA-MB-231 cells determined by western blot analyses. FIG. 8B) The binding of AF-647-labeled pRNA-HER2apt-siMED1 and its mutant nanoparticles to MDA-MB-231 and BT474 cells examined by confocal microscopy. Green represents the immunofluorescent staining of HER2, and blue represents nuclear staining with DAPI. FIG. 8C) The internalization of AF647-labeled pRNA nanoparticles by MDA-MB-231 cells examined by confocal microscopy. Green represents the immunofluorescent staining of β-actin. Scale bar: 10 μm. FIG. 8D) The cellular uptake of AF647-labeled pRNA nanoparticles by MDA-MB-231 cells quantified by flow cytometry. FIG. 8E) HER2 expression in BT474 xenograft tumors was examined by western blot analyses. FIG. 8F) MDA-MB-231 cells were incubated directly with (as indicated by-) or transfected with pRNAs using lipofectamine 2000. At 48 h post treatment, MED1 protein levels were determined by western blots.\nCell culture. […] The hydrodynamic diameter and Tm value of pRNA nanoparticles were determined using dynamic light scattering and TGGE assay, respectively, as previously described.^54 The AFM imaging of the pRNA nanoparticles was performed at the University of Nebraska Medical Center imaging facility as previously reported.^55 Briefly, the pRNA nanoparticles (5 μL) were deposited on APS modified mica ^56 for a total of 2 min of incubation time. […]"}, "MED1 [1]": {"system": "MED1", "test": "MED1 protein level by western blots in MCF-7/HER2 cells", "settings": "MCF-7/HER2, 10 μg/mL, 48 h", "procedure": "(§1) FIGS. 10A-10D. Evidence that pRNA-HER2apt-siMED1 nanoparticles silenced MED1 expression and sensitized two other HER2+ breast cancer cells to tamoxifen treatment. FIG. 10A) Two HER2-overexpressing breast cancer cell lines MCF7/TAM and FIG. 10B) MCF7/HER2, were treated with 10 μg/mL pRNA-HER2apt-siMED1 nanoparticles or scramble control for 48 h, and then MED1 protein level was determined using western blots. FIG. 10C) MCF7/TAM and FIG. 10D) MCF7/HER2 cells were treated with 10 μg/mL pRNA nanoparticles and/or 1 μM tamoxifen (TAM) as indicated for 48 h, and then cell growth was determined using an MTT assay.\n(§2) Next, the ability of pRNA-HER2apt-siMED1 nanoparticles to silence the expression of MED1 in BT474 and MDA-MB-231 human breast cancer cells was examined. Using real-time PCR analyses, a significant depletion of nearly 70% of MED1 mRNA in BT474 cells after pRNA-HER2apt-siMED1 but not pRNA-HER2apt^mut-siMED1 treatment was found (FIG. 3A)."}, "MED1 [2]": {"system": "MED1", "test": "MED1 protein level by western blots in MCF-7/TAM cells", "settings": "10 μg/mL, 48 h", "procedure": "as §1, §2"}}}
{"molecule": "B1", "values": [{"measurement": "binding and internalization into cells", "setting": "MDA-MB-231 cells", "result": "not"}, {"measurement": "MED1 silencing", "setting": "MED1 [1]", "result": "confirmed"}, {"measurement": "MED1 silencing", "setting": "MED1 [2]", "result": "confirmed"}]}
